Values quoted from earlier work as cited in article PMC5871670.

Tests used:
[1] = molecular target: cytokeratin 1 (CK1) (Homo sapiens) (UniProt P04264); test: surface plasmon resonance
gC1q-R (Homo sapiens) = gC1q-R (Homo sapiens) (UniProt Q07021); test: surface plasmon resonance
uPAR (Homo sapiens) = uPAR (Homo sapiens) (UniProt Q03405); test: surface plasmon resonance
Factor XI (Homo sapiens) = Factor XI (Homo sapiens) (UniProt P03951)
Sequence of UniProt P03951 (P03951 388-625): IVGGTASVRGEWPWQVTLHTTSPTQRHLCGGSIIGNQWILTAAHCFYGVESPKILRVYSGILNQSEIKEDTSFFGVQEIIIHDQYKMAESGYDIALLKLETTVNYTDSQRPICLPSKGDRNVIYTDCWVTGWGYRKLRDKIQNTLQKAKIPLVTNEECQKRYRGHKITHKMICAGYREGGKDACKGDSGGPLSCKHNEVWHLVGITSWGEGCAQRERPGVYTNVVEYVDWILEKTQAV

Sequence of UniProt P04264 (P04264 2-644): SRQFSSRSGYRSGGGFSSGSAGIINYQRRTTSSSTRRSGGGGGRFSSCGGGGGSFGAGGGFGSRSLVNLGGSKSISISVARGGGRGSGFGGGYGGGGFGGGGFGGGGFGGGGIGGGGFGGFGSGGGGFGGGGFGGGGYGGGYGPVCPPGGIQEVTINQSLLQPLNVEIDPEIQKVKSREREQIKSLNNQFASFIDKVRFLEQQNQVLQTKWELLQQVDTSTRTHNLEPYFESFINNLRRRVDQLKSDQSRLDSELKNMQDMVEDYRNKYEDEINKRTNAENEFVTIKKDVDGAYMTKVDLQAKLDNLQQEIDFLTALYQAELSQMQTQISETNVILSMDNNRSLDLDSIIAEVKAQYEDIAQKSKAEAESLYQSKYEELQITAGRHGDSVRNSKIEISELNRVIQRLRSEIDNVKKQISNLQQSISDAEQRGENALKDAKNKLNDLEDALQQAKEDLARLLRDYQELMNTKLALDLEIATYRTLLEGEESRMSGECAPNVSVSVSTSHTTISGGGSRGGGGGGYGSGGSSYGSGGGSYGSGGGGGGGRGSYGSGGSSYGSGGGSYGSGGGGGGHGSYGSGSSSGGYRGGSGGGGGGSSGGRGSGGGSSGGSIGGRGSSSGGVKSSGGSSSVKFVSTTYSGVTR
Sequence of UniProt Q03405 (Q03405 23-305): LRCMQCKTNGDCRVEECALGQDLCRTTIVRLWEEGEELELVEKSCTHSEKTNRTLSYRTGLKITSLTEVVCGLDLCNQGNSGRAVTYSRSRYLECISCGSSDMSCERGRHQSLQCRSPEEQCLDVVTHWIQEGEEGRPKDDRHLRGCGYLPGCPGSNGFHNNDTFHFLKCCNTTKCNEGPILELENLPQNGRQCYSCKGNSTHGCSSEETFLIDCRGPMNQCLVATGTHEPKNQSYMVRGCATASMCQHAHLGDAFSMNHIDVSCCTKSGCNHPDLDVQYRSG
Sequence of UniProt Q07021 (Q07021 74-282): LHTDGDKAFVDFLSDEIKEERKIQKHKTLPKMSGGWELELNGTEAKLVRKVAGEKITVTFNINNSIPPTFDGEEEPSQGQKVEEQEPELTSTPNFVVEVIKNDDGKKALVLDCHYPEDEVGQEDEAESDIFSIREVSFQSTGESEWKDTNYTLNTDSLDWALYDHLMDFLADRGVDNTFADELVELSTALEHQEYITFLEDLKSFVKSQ

Kd [1] [nM] | Kd (gC1q-R (Homo sapiens)) [nM] | Kd (uPAR (Homo sapiens)) [nM] | Kd (Factor XI (Homo sapiens)) [nM] | Substance
15 | 0.8 | 2300 | – | high molecular weight kininogen (HK) (from UniProt P01042)
– | – | – | 52 | GPIbα (from UniProt P07359)
